Measured values published in the supplement of paper PMC12042874.
± gives the uncertainty stated by the source.

Assay: amyloid nucleation score (Sup35N fusion, yeast selection) (log enrichment); library NNK2; higher = more nucleation; inactive = no reads after selection
Procedure, shortened: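 Libraries of peptides of 20 random codons fused to Sup35N were expressed in psi-negative yeast and induced 24 hours with 100 μM copper sulfate. Selection was 7 days at 30°C on medium lacking adenine and uracil, and plasmid inserts were Illumina-sequenced before and after selection. Nucleation score is the DiMSum log enrichment of output over input reads, centred on the mode score of non-aggregating sequences, and sequences with under 100 input reads were left out.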

Substance	amyloid nucleation score
NVCIKLARCVVGLNLRFRGS	-0.347 ± 0.79
NVCNTNWESVRKAWFSNMMV	0.775 ± 0.52
NVFLS	inactive
NVKSYKGQRFVAFGGGSVYA	0.567 ± 0.32
NVKTKLCAGSKYSFPF	0.213 ± 0.43
NVMKVLSNRL	1.61 ± 0.1
NVPLFRSVSGDPVHHPLI	2.41 ± 0.15
NVSVGVPLQRTILLDLCTGT	inactive
NVTQMRGSDISLLRMFESNY	0.454 ± 0.45
NVVSLIIQRKLRPAPVGSFR	0.218 ± 1.1
NWGTGQPYNRMCMVH	inactive
NWKWVRSKVAWPMRSEHHVE	1.65 ± 0.21
NWVRINYWLRAIIKSELRVG	-0.155 ± 0.49
NWWLTHVHLVSFYVVSWGWV	3.35 ± 0.12
NYILSMLCKMNARCLVTWRI	0.712 ± 0.4
NYLSLVGRFNMGWGESNGRR	5.888 ± 0.058
NYNLRDHSDVRVRCSLALSE	inactive
NYQGI	-0.874 ± 0.56
NYQIHVRVIRHLMTLGISAQ	0.236 ± 0.35
PAFMSV	-1.05 ± 0.36
PAHVSYILSLCLINVC	4.34 ± 0.072
PAPCTFRYLAITCGLTRYTC	-0.143 ± 0.34

Substance	amyloid nucleation score
PASTREDGWFYCAHSVVSSQ	0.346 ± 0.54
PAVSYFFITFYVIVRFRLAE	2.86 ± 0.18
PAYRYKHSNWKNPRQ	inactive
PCCRGRRSSLGRAIKGAEAK	0.009 ± 0.23
PCGNPLQRYS	1.62 ± 0.4
PCIWGDVVL	0.506 ± 0.41
PCNTVLASPRYHVGGIYNLK	-0.727 ± 0.78
PCRLHLAWIVSLMT	4.21 ± 0.067
PCSANWRLYIANISGSFPMR	5.34 ± 0.083
PDFSDFITHLIGFRSMGTGG	-0.694 ± 1.1
PDISKECLTIGNGSACELTD	0.827 ± 0.28
PDVVNNGGSYHLHWGCWCW	3.25 ± 0.14
PEFICYCANSACDWSTYCIG	7.356 ± 0.036
PEFITEFQALASFEYVMLRF	-1.23 ± 0.41
PFDFWRLISSLG	0.531 ± 0.81
PFFLMISAVISHHNEHRHTM	5.926 ± 0.058
PFMRYPWYFIAGYV	-1.52 ± 0.49
PFRKDVTLPLIFVLHVLQPD	-0.191 ± 0.54
PFYLVRRGWNIWNSNGVECH	-0.161 ± 1.1
PGDGTFLMFLACGCFRPFCG	-0.181 ± 0.49
PGLLQGLKSGWSKTYKLLTR	0.808 ± 0.8
PGSRTWFGTMLAPDTCLHEM	1.7 ± 0.16

Substance	amyloid nucleation score
PHDGMHINT	1.53 ± 0.31
PILEIYVCGSLMYIFNITIV	6.691 ± 0.033
PINKGKWCSTNFNAGITRI	-0.01 ± 0.61
PIRPVLWVQFVKTQYGPMIP	4.68 ± 0.098
PISTSLADR	1.21 ± 0.42
PIYLIC	-0.686 ± 0.28
PLAVGRCGGIAYSVWCTVNL	5.15 ± 0.078
PLERKRLSHCRWLGRRRLGG	1 ± 0.34
PLGPNSTYFVWASSWAFYRP	-1.65 ± 0.78
PLILGGGLLWIVC	0.201 ± 0.74
PLRNGDGVSFLGSVLSWPQA	-0.294 ± 1.1
PLWVEGFMCSNGMCILGRSG	1.77 ± 0.14
PMCPMSIVLCSATLLLELFV	5.414 ± 0.037
PMISFSLTMRDNCYSGWLCN	1.63 ± 0.21
PMKLTILDTNGCNINRAPFS	-1.02 ± 1.1
PMLEFWFMAWIEMFTYKKCC	1.8 ± 0.53
PMMSIAMCVSSTPLRYFRVR	2 ± 0.12
PMMWESESYPLIF	-0.268 ± 0.79
PMYRILNSTKESSGFALRGP	-0.952 ± 0.45
PNDHNQLQGPMLSLPPVKQV	-0.359 ± 0.41
PNIKNIT	2.38 ± 0.24
PNRIFFTLFCLTKYIIPMFM	-1.33 ± 0.75

Substance	amyloid nucleation score
PPRKTIELCSTQP	0.7 ± 0.35
PPTTT	0.621 ± 0.43
PQGDSMTVCFQLVT	1.28 ± 0.61
PQHYVMGYVCWDVSVVLRSP	2.91 ± 0.092
PQLSKVLGWNYRCVNLSIW	4.93 ± 0.086
PRGAPNVFDFTLNFSLKQVA	-0.551 ± 0.35
PRGLATRPLFNRVYLHWYLL	-0.639 ± 0.61
PRLKMLRWAGVNQS	-0.011 ± 0.4
PRMRWAVCERP	4.11 ± 0.096
PRRSNTCWNSCISEMIGIRS	0.664 ± 0.51
PRSVVPYR	0.5 ± 0.31
PRVPCTHHMPGW	0.027 ± 0.65
PRWAKYYVLSRC	-1.6 ± 1.1
PRWKHLTWIP	-0.349 ± 0.64
PSFFCKWKSLYPTVNVCVVN	-0.073 ± 0.49
PSITPLACHHTRCNW	-0.881 ± 0.28
PSLLFFSCV	-0.366 ± 0.56
PSSDRMSKCVFRVRNCQEAL	0.157 ± 0.55
PTMYWFPPETATSPPYGPPG	3.54 ± 0.1
